Measurements from patent US20240287457A1, “COMPOSITIONS AND CELL CULTURE MEDIA FOR INCREASING NEUTROPHIL LIFESPAN” (THE CHILDREN'S MEDICAL CENTER CORPORATION, priority 2021, published 2024).

Experiments:
neutrophils = settings: 20 hours at 37° C. in anoxic culture medium with 3 mM glucose and 32 mg/mL DMOG; from about 1 day; cited from earlier work
caspases = settings: pan-caspase inhibitor; cited from earlier work
murine neutrophils [1] = experiment: In vitro neutrophil death / survival of cultured murine neutrophils; format: cell-based, mouse; settings: for healthy neutrophils remaining: mouse, G-CSF alone
[2] = tested on: neutrophils purified from wild-type (WT) mice; experiment: fMLP-induced neutrophil polarization (ruffling); format: cell-based, mouse; settings: fMLP 1 μM, FIG. 10
Method: FIG. 10A is a series of images showing chemoattractant-induced neutrophil ruffling. Neutrophils (2×10^5) purified from wild-type (WT) mice were plated on LABTEK chamber slides and cultured in RPMI-1640 in the presence or absence of Rac1 inhibitor for 60 minutes. Cells were then uniformly stimulated with N-formyl-met-leu-phe (fMLP, 1 μM). Images were taken 5 minutes after the fMLP stimulation (400×). FIG. 10B is a bar graph showing the percentage of cells that ruffled or extended pseudopods, calculated from images captured 5 minutes after stimulus was added. At least 200 cells were assessed for each sample in each experiment. Data are represented as mean±SD of three experiments. **p<0.001 versus untreated neutrophils.

cells = settings: even at extremely high concentrations; cited from earlier work
transfused neutrophils [3] = experiment: In vivo recruitment of transfused neutrophils in a mouse peritonitis model; settings: 1-day-old neutrophils
Method: In vivo recruitment of transfused neutrophils in a mouse peritonitis model: Freshly isolated CD45.1^+ or CLON-G-treated (1 day) GFP^+ bone marrow neutrophils were mixed (1:1, a total of 5×10^6/mouse) and injected intravenously into neutropenic recipient mice challenged with TG for 1 hour. At the indicated time points after cell injection, peritoneal cells were harvested by peritoneal cavity lavage with 5 mL of ice-cold PBS/15 mM EDTA, flushed back and forth three times. The relative amount of transfused freshly isolated CD45.1^+ and CLON-G-treated (1 day) GFP^+ neutrophils were analyzed by flow cytometry using a BD FACSCANTO II flow cytometer as described above.

human neutrophils = experiment: In vitro neutrophil death / survival of cultured human neutrophils; settings: G-CSF alone
E. coli = experiment: Neutropenia-related E. coli-induced pneumonia model (GTX); format: in vivo, mouse
transfused neutrophils [4] = experiment: In vivo recruitment of transfused neutrophils in bacterial pneumonia; design: species or system mouse; settings: lungs
Method: In vivo recruitment of transfused neutrophils in bacterial pneumonia: Freshly isolated or CLON-G-treated bone marrow neutrophils were labeled with carboxyfluorescein diacetate succinimidyl ester (CFSE, 5 μM) or seminaphthorhodafluor-1 acetate (SNARF-1, 5 μM) at 37° C. for 10 minutes; labeled cells were mixed (1:1, a total of 5×10^6/mouse) and transfused via the tail vein into the same neutropenic recipient mice challenged with 5×10^3 cfu E. coli for 4 hours. Whole lungs were homogenized 3 hours after neutrophil transfusion. The number of adoptively transferred neutrophils recruited to the lungs was analyzed using a FACSCANTO II flow cytometer and […] software. Relative recruitments of CLON-G-treated and freshly isolated neutrophils were calculated as the ratio of the indicated populations.

murine neutrophils [5] = experiment: In vitro phagocytosis assay, murine neutrophils; format: cell-based, mouse; settings: after one day of culture
Method: In vitro phagocytosis assay: […] pHrodo Red E. coli BioParticles or Zymosan A S. cerevisiae BioParticles (INVITROGEN) were reconstituted in phosphate-buffered saline (PBS) and opsonized with 10% serum at 37° C. for 30 minutes. Neutrophils were incubated with serum-opsonized bioparticles at a ratio of 1:10 (neutrophils:bioparticles) at 37° C. for 0.5 hours. APC-Ly6G (BIOLEGEND, 1A8, 0.2 μg/mL) or APC-CD16 (BIOLEGEND, 51.1, 0.2 μg/mL) antibody was added to the sample to label mouse or human neutrophil membranes. The labeling was achieved by incubating the samples at room temperature for 3 minutes. The number of internalized particles was counted under a spinning disk confocal microscope ([…] VOX). Phagocytosis efficiency was expressed as the percentage of neutrophils that engulfed at least one bioparticle. Phagocytosis index was expressed as the average number of internalized particles per cell. At least 200 cells were counted from random fields per coverslip for each group.

[6] = tested on: transfused human neutrophils; experiment: Survival and function of transfused human neutrophils in vivo in NSG mice
[7] = tested on: neutrophils in the granulocyte apheresis concentrates; experiment: Survival and function of neutrophils from human granulocyte apheresis concentrates; format: cell-based; settings: cultured for only 1 day, FIG. 6K
Method: Accordingly, the donors were stimulated in the evening and granulocyte collection was carried out the next morning. Neutrophil harvesting was accomplished through the process of apheresis in which red blood cells (RBCs) and plasma were returned to the donor. To collect enough cells for GTX, standard continuous flow apheresis was performed for 1 to 1.5 hours to process 3.5 to 5 liters of blood. Citrate was used as the anticoagulant during collection and calcium gluconate was added to the return line to counteract the citrate-induced hypocalcemic symptoms in the donor. […] The purity was >97% as determined by both Wright-Giemsa staining and flow cytometry analysis with CD15 and CD16 antibodies. […] No contamination of hematopoietic progenitor cells (HPCs) was detected. […] The total initial cell number was counted using a hemocytometer before culture or treatment. At each indicated time point, the total cell number was counted again. […] Apoptotic cells were detected by Annexin V-fluorescein isothiocyanate (FITC) and propidium iodide (PI) staining using an Annexin V Detection Kit (BD BIOSCIENCES) following the manufacturer's protocol. Flow cytometry was performed using a FACSCANTO II flow cytometer and analyzed using […] software (BD BIOSCIENCES). […] Chemotaxis velocity and directionality were analyzed; see e.g., Jia et al. 2007, supra. […]

COC(=O)CNC(=O)C(=O)OC [DMOG, dimethyloxalylglycine]
neutrophil half-life in vitro (neutrophils): 48 h

C[C@H](NC(=O)C(=O)Nc1ccccc1C(C)(C)C)C(=O)N[C@@H](CC(=O)O)C(=O)COc1c(F)c(F)cc(F)c1F [Emricasan, N-[2-(1,1-dimethylethyl)phenyl]-2-oxoglycyl-N-[(1S)-1-(carboxymethyl)-2-oxo-3-(2,3,5,6-tetrafluorophenoxy)propyl]-L-Alaninamide, reference compound]
activity in vitro (caspases): sub- to nanomolar
lifespan of cultured neutrophils (murine neutrophils [1]; in combination with NAC, Hsp70, DFO, G-CSF, and optionally a RIPK1 inhibitor, FIG. 23, murine bone marrow neutrophils): prolonged the lifespan

CCN(CC)CCCC(C)Nc1nc(C)cc(Nc2ccc3nc(C)cc(N)c3c2)n1 (centres unmarked) [NSC23766]
fMLP-induced neutrophil polarization [2]: effectively inhibited

CC(C)C(NC(=O)c1ccc2ccccc2n1)C(=O)NC(CC(=O)O)C(=O)COc1c(F)cccc1F (stereo not drawn) [Q-VD-Oph, Quinoline-Val-Asp-Difluorophenoxymethylketone]
toxicity to cells (cells): not toxic

B1: G-CSF: granulocyte colony-stimulating factor (AMGEN, NEUPOGEN), PI3K/Akt pathway stimulator (protein, listed as Homo sapiens)
chain: MTPLGPASSLPQSFLLKCLEQVRKIQGDGAALQEKLCATYKLCHPEELVLLGHSLGIPWAPLSSCPSQALQLAGCLSQLHSGLFLYQGLLQALEGISPELGPTLDTLQLDVADFATTIWQQMEELGMAPALQPTQGAMPAFASAFQRRAGGVLVASHLQSFLEVSYRVLRHLAQP
recruitment efficiency compared to fresh neutrophils (transfused neutrophils [3]): reduced recruitment efficiency
healthy neutrophils remaining (human neutrophils; after 1 day of treatment): about 55%
healthy neutrophils remaining (human neutrophils; after 3 days of treatment): ~15%
inflammatory cytokine concentrations (TNF-α, IL-6) (E. coli; inflamed lungs, ELISA): unable to reduce inflammatory cytokine concentrations
edema formation (E. coli; lung, transfusion of treated neutrophils): failed to produce the same protective effect
bacteria-killing capacity in neutropenic recipient mice (E. coli; transfusion of treated neutrophils, 5×10^3 cfu E. coli): ineffective
BALF protein concentrations (E. coli; transfusion of treated neutrophils, compared with fresh neutrophils): remained high
recruitment efficiency compared to fresh neutrophils (transfused neutrophils [4]): reduced recruitment efficiency
phagocytosis efficiency (murine neutrophils [5]): lower
recruitment of transfused human neutrophils to the inflamed peritoneal cavity ([6]; 1 and 2 hours post transfusion): lower
human neutrophils left in the peritoneal cavity / cell death ([6]; injected into inflamed peritoneal cavity, each time point): faster rates of cell death
phagocytosis efficiency lower than that of fresh human neutrophils ([6]; pHrodo-E. coli): about 50%
healthy neutrophils remaining (murine neutrophils [1]; after 1 day of treatment): ~40%
healthy neutrophils remaining (murine neutrophils [1]; after 3 days of treatment): ~15%
reduction in relative bacterial killing capability [7]: more than 50%
